T1: ARHGEF11, O15085
T1 sequence (O15085 42-136, limits assumed, looked up): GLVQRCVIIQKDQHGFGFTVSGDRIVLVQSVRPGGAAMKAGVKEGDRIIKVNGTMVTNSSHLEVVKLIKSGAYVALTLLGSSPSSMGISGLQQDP

T2: DFNB31_3, Q9P202
T2 sequence (Q9P202 811-907, limits assumed, looked up): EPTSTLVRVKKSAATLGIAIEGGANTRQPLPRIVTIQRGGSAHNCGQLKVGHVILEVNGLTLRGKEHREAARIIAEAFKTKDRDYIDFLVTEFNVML

T3: FRMPD1, Q5SYB0
T3 sequence (Q5SYB0 52-145, limits assumed, looked up): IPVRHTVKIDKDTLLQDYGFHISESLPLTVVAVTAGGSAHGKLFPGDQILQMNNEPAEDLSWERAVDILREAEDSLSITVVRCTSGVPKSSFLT

T4: GRIP1_7, Q9Y3R0
T4 sequence (Q9Y3R0 999-1096, limits assumed, looked up): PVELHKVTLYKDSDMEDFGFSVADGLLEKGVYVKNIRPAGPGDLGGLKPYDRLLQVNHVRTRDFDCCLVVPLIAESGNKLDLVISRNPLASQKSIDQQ

T5: HTRA3, P83110
T5 sequence (P83110 354-453, limits assumed, looked up): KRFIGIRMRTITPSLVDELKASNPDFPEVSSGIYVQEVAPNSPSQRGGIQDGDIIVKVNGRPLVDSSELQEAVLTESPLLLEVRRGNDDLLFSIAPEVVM

T6: LIN7A, O14910
T6 sequence (O14910 103-200, limits assumed, looked up): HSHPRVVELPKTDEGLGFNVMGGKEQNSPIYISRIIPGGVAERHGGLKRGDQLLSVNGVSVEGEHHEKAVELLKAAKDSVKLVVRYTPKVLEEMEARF

T7: MPDZ_5, O75970
T7 sequence (O75970 695-796, limits assumed, looked up): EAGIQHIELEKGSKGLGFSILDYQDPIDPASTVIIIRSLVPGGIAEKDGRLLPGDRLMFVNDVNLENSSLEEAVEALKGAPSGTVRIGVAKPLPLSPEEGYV

T8: MPP2, Q14168
T8 sequence (Q14168 180-250, limits assumed, looked up): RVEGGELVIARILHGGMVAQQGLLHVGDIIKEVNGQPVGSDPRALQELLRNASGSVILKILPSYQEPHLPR

T9: NHERF3_3, Q5T2W1
T9 sequence (Q5T2W1 238-333, limits assumed, looked up): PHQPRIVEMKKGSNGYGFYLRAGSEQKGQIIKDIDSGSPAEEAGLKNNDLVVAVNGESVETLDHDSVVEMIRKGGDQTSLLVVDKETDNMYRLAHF

T10: PCLO, Q9Y6V0
T10 sequence (Q9Y6V0 4491-4600, limits assumed, looked up): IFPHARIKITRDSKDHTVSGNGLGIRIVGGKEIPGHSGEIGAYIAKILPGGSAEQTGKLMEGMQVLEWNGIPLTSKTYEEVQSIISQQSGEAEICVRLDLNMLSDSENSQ

T11: PDZD7_3, Q9H5P4
T11 sequence (Q9H5P4 857-944, limits assumed, looked up): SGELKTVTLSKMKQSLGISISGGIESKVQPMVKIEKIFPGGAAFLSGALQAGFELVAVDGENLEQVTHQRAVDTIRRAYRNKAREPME

T12: TIAM2, Q8IVF5
T12 sequence (Q8IVF5 885-986, limits assumed, looked up): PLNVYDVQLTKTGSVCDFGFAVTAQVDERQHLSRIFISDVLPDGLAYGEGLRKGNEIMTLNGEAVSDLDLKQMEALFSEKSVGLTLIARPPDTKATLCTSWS

T13: TJP3_3, O95049
T13 sequence (O95049 375-456, limits assumed, looked up): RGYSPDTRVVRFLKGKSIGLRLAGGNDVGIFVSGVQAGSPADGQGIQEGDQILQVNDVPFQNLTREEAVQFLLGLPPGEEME


The binders below were run against T1, ARHGEF11, O15085 (assay: holdup assay). Details: plain residues with an end cap or a label only (N-terminal biotin on a linker: ttds).
Design: key: below the threshold = too weak to quantify, mostly under pKd 3.1 to 4
For PKTPPTDTSV [KIR3DL3, Q8N743], the pKd was “below the threshold”.
For GQDSREETQL [KCNT2, Q6UVM3], the pKd was 4.44.

These binders were tested against T2, DFNB31_3, Q9P202 (assay: holdup assay). Details: plain residues with an end cap or a label only (N-terminal biotin on a linker: ttds).
Design: key: below the threshold = too weak to quantify, mostly under pKd 3.1 to 4
In the case of PKTPPTDTSV [KIR3DL3, Q8N743], the pKd is reported as “below the threshold”.
For GQDSREETQL [KCNT2, Q6UVM3], the pKd was “below the threshold”.

These binders were tested against DLG1_3, Q12959 (assay: holdup assay). Details: plain residues with an end cap or a label only (N-terminal biotin on a linker: ttds).
DLG1_3, Q12959, sequence (Q12959 457-571): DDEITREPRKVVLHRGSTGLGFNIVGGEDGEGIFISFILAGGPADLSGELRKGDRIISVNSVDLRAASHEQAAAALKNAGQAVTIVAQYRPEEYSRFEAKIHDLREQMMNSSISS
Design: key: below the threshold = too weak to quantify, mostly under pKd 3.1 to 4
PKTPPTDTSV [KIR3DL3, Q8N743] was tested, and the pKd was “below the threshold”.
For GQDSREETQL [KCNT2, Q6UVM3], the pKd was “below the threshold”.

What follows are binders tested against DLG2_2, Q15700 (assay: holdup assay). Details: plain residues with an end cap or a label only (N-terminal biotin on a linker: ttds).
Design: key: below the threshold = too weak to quantify, mostly under pKd 3.1 to 4
For PKTPPTDTSV [KIR3DL3, Q8N743], the pKd was “below the threshold”.
GQDSREETQL [KCNT2, Q6UVM3] was tested, and the pKd was 4.47.

What follows are binders tested against DLG2_3, Q15700 (assay: holdup assay). Details: plain residues with an end cap or a label only (N-terminal biotin on a linker: ttds).
Design: key: below the threshold = too weak to quantify, mostly under pKd 3.1 to 4
PKTPPTDTSV [KIR3DL3, Q8N743] showed a pKd of 3.77.
GQDSREETQL [KCNT2, Q6UVM3] was tested, and the pKd was “below the threshold”.

These binders were tested against T3, FRMPD1, Q5SYB0 (assay: holdup assay). Details: plain residues with an end cap or a label only (N-terminal biotin on a linker: ttds).
Design: key: below the threshold = too weak to quantify, mostly under pKd 3.1 to 4
In the case of PKTPPTDTSV [KIR3DL3, Q8N743], the pKd is reported as “below the threshold”.
With GQDSREETQL [KCNT2, Q6UVM3] the pKd was “below the threshold”.

Each binder was assayed against GORASP1, Q9BQQ3 (assay: holdup assay). Details: plain residues with an end cap or a label only (N-terminal biotin on a linker: ttds).
GORASP1, Q9BQQ3, sequence (Q9BQQ3 1-208): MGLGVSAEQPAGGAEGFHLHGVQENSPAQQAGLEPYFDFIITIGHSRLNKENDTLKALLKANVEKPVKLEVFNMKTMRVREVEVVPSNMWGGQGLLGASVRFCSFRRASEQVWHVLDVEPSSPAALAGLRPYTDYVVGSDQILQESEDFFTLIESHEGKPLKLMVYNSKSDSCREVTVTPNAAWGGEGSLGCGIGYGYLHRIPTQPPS
Design: key: below the threshold = too weak to quantify, mostly under pKd 3.1 to 4
PKTPPTDTSV [KIR3DL3, Q8N743] was tested, and the pKd was “below the threshold”.
GQDSREETQL [KCNT2, Q6UVM3] gave a pKd of 3.75.

The binders below were run against T4, GRIP1_7, Q9Y3R0 (assay: holdup assay). Details: plain residues with an end cap or a label only (N-terminal biotin on a linker: ttds).
Design: key: below the threshold = too weak to quantify, mostly under pKd 3.1 to 4
With PKTPPTDTSV [KIR3DL3, Q8N743] the pKd was “below the threshold”.
For GQDSREETQL [KCNT2, Q6UVM3], the pKd was “below the threshold”.

Each binder was assayed against GRIP2_4, Q9C0E4 (assay: holdup assay). Details: plain residues with an end cap or a label only (N-terminal biotin on a linker: ttds).
GRIP2_4, Q9C0E4, sequence (Q9C0E4 446-548): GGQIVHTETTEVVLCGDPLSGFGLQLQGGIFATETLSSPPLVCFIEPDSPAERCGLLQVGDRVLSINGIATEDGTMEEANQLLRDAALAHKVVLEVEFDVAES
Design: key: below the threshold = too weak to quantify, mostly under pKd 3.1 to 4
For PKTPPTDTSV [KIR3DL3, Q8N743], the pKd was “below the threshold”.
With GQDSREETQL [KCNT2, Q6UVM3] the pKd was “below the threshold”.

What follows are binders tested against GRIP2_5, Q9C0E4 (assay: holdup assay). Details: plain residues with an end cap or a label only (N-terminal biotin on a linker: ttds).
GRIP2_5, Q9C0E4, sequence (Q9C0E4 544-642): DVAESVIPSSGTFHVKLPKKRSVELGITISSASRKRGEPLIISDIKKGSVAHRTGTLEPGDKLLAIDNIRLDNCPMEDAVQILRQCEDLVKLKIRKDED
Design: key: below the threshold = too weak to quantify, mostly under pKd 3.1 to 4
With PKTPPTDTSV [KIR3DL3, Q8N743] the pKd was “below the threshold”.
In the case of GQDSREETQL [KCNT2, Q6UVM3], the pKd is reported as “below the threshold”.

What follows are binders tested against T5, HTRA3, P83110 (assay: holdup assay). Details: plain residues with an end cap or a label only (N-terminal biotin on a linker: ttds).
Design: key: below the threshold = too weak to quantify, mostly under pKd 3.1 to 4
With PKTPPTDTSV [KIR3DL3, Q8N743] the pKd was “below the threshold”.
For GQDSREETQL [KCNT2, Q6UVM3], the pKd was “below the threshold”.

These binders were tested against IL16_4, Q14005 (assay: holdup assay). Details: plain residues with an end cap or a label only (N-terminal biotin on a linker: ttds).
IL16_4, Q14005, sequence (Q14005 1229-1329): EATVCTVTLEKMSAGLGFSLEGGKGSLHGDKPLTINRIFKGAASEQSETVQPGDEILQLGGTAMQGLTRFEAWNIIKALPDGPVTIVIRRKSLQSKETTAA
Design: key: below the threshold = too weak to quantify, mostly under pKd 3.1 to 4
PKTPPTDTSV [KIR3DL3, Q8N743] was tested, and the pKd was “below the threshold”.
GQDSREETQL [KCNT2, Q6UVM3] was tested, and the pKd was “below the threshold”.

The binders below were run against LAP2, Q96RT1 (assay: holdup assay). Details: plain residues with an end cap or a label only (N-terminal biotin on a linker: ttds).
LAP2, Q96RT1, sequence (Q96RT1 other isoform, or with tags, fused parts or gaps): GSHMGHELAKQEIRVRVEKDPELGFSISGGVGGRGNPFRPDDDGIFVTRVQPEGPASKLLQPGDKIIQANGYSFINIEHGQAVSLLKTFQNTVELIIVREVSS
Design: key: below the threshold = too weak to quantify, mostly under pKd 3.1 to 4
With PKTPPTDTSV [KIR3DL3, Q8N743] the pKd was “below the threshold”.
GQDSREETQL [KCNT2, Q6UVM3] was tested, and the pKd was 3.75.

The binders below were run against T6, LIN7A, O14910 (assay: holdup assay). Details: plain residues with an end cap or a label only (N-terminal biotin on a linker: ttds).
Design: key: below the threshold = too weak to quantify, mostly under pKd 3.1 to 4
In the case of PKTPPTDTSV [KIR3DL3, Q8N743], the pKd is reported as “below the threshold”.
GQDSREETQL [KCNT2, Q6UVM3] was tested, and the pKd was “below the threshold”.

Each binder was assayed against LNX1_2, Q8TBB1 (assay: holdup assay). Details: plain residues with an end cap or a label only (N-terminal biotin on a linker: ttds).
LNX1_2, Q8TBB1, sequence (Q8TBB1 371-470): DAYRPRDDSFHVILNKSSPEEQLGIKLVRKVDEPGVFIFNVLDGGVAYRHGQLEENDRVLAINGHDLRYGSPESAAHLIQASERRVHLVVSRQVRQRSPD
Design: key: below the threshold = too weak to quantify, mostly under pKd 3.1 to 4
For PKTPPTDTSV [KIR3DL3, Q8N743], the pKd was “below the threshold”.
For GQDSREETQL [KCNT2, Q6UVM3], the pKd was “below the threshold”.

What follows are binders tested against MAST1, Q9Y2H9 (assay: holdup assay). Details: plain residues with an end cap or a label only (N-terminal biotin on a linker: ttds).
MAST1, Q9Y2H9, sequence (Q9Y2H9 962-1065): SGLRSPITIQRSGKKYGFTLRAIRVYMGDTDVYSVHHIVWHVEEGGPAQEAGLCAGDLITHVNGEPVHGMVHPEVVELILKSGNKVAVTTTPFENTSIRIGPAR
Design: key: below the threshold = too weak to quantify, mostly under pKd 3.1 to 4
For PKTPPTDTSV [KIR3DL3, Q8N743], the pKd was “below the threshold”.
For GQDSREETQL [KCNT2, Q6UVM3], the pKd was 5.14.

Each binder was assayed against T7, MPDZ_5, O75970 (assay: holdup assay). Details: plain residues with an end cap or a label only (N-terminal biotin on a linker: ttds).
Design: key: below the threshold = too weak to quantify, mostly under pKd 3.1 to 4
PKTPPTDTSV [KIR3DL3, Q8N743] was tested, and the pKd was “below the threshold”.
GQDSREETQL [KCNT2, Q6UVM3] was tested, and the pKd was “below the threshold”.

These binders were tested against T8, MPP2, Q14168 (assay: holdup assay). Details: plain residues with an end cap or a label only (N-terminal biotin on a linker: ttds).
Design: key: below the threshold = too weak to quantify, mostly under pKd 3.1 to 4
For PKTPPTDTSV [KIR3DL3, Q8N743], the pKd was “below the threshold”.
GQDSREETQL [KCNT2, Q6UVM3] was tested, and the pKd was “below the threshold”.

The binders below were run against NHERF2_2, Q15599 (assay: holdup assay). Details: plain residues with an end cap or a label only (N-terminal biotin on a linker: ttds).
NHERF2_2, Q15599, sequence (Q15599 142-238): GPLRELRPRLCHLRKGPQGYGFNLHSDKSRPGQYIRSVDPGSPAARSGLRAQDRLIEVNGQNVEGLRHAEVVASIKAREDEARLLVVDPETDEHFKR
Design: key: below the threshold = too weak to quantify, mostly under pKd 3.1 to 4
PKTPPTDTSV [KIR3DL3, Q8N743] was tested, and the pKd was “below the threshold”.
Work on GQDSREETQL [KCNT2, Q6UVM3] yielded a pKd of 5.17.

Each binder was assayed against T9, NHERF3_3, Q5T2W1 (assay: holdup assay). Details: plain residues with an end cap or a label only (N-terminal biotin on a linker: ttds).
Design: key: below the threshold = too weak to quantify, mostly under pKd 3.1 to 4
With PKTPPTDTSV [KIR3DL3, Q8N743] the pKd was “below the threshold”.
GQDSREETQL [KCNT2, Q6UVM3] was tested, and the pKd was “below the threshold”.

What follows are binders tested against T10, PCLO, Q9Y6V0 (assay: holdup assay). Details: plain residues with an end cap or a label only (N-terminal biotin on a linker: ttds).
Design: key: below the threshold = too weak to quantify, mostly under pKd 3.1 to 4
PKTPPTDTSV [KIR3DL3, Q8N743] was tested, and the pKd was “below the threshold”.
For GQDSREETQL [KCNT2, Q6UVM3], the pKd was “below the threshold”.

These binders were tested against T11, PDZD7_3, Q9H5P4 (assay: holdup assay). Details: plain residues with an end cap or a label only (N-terminal biotin on a linker: ttds).
Design: key: below the threshold = too weak to quantify, mostly under pKd 3.1 to 4
For PKTPPTDTSV [KIR3DL3, Q8N743], the pKd was 3.61.
With GQDSREETQL [KCNT2, Q6UVM3] the pKd was 4.47.

Each binder was assayed against SCRIB_1, Q14160 (assay: holdup assay). Details: plain residues with an end cap or a label only (N-terminal biotin on a linker: ttds).
SCRIB_1, Q14160, sequence (Q14160 718-814): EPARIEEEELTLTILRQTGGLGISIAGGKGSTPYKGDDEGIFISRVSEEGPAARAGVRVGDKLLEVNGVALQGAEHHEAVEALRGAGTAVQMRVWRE
Design: key: below the threshold = too weak to quantify, mostly under pKd 3.1 to 4
PKTPPTDTSV [KIR3DL3, Q8N743] was tested, and the pKd was 3.69.
In the case of GQDSREETQL [KCNT2, Q6UVM3], the pKd is reported as 4.57.

What follows are binders tested against T12, TIAM2, Q8IVF5 (assay: holdup assay). Details: plain residues with an end cap or a label only (N-terminal biotin on a linker: ttds).
Design: key: below the threshold = too weak to quantify, mostly under pKd 3.1 to 4
PKTPPTDTSV [KIR3DL3, Q8N743] was tested, and the pKd was “below the threshold”.
In the case of GQDSREETQL [KCNT2, Q6UVM3], the pKd is reported as “below the threshold”.

These binders were tested against T13, TJP3_3, O95049 (assay: holdup assay). Details: plain residues with an end cap or a label only (N-terminal biotin on a linker: ttds).
Design: key: below the threshold = too weak to quantify, mostly under pKd 3.1 to 4
PKTPPTDTSV [KIR3DL3, Q8N743] was tested, and the pKd was “below the threshold”.
For GQDSREETQL [KCNT2, Q6UVM3], the pKd was “below the threshold”.

Reference: PMC9482650, “Quantitative fragmentomics allow affinity mapping of interactomes” (Nature Communications, 2022)
